The supplement of paper PMC10567573
± gives the standard deviation.

Experiment: protein stability index of a GFP-peptide fusion (GPS, HEK-293T) (PSI 1-6); higher = more stable
[1] = treatment: DMSO, c terminus: a fixed tail appended
[2] = treatment: MLN4924 1 uM, 8 h, c terminus: a fixed tail appended
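Note: 24-mer peptide tiles fused after GFP, lentivirally expressed, FACS-sorted into six equal bins by GFP/DsRed ratio, decoded by Illumina sequencing, PSI is the read-weighted mean bin number.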

Sequence | protein stability index [1] | protein stability index [2] | protein stability index (treatment: DMSO, c terminus: native) | protein stability index (treatment: MLN4924 1 uM, 8 h, c terminus: native)
EEEEEGRFYYSEDDHGDECSYTDL [KCNA4] | 5.4 ± 0.12 | 5.33 ± 0.2 |  | 
FCISLLRERFMECLMIGRDLVRLL [INTS3] | 2.27 ± 0.28 | 2.29 ± 0.13 |  | 
SSDHLFLFGGFTTDKQPLSDAWTY [KLHDC2] | 2.25 ± 0.61 | 2.23 ± 0.063 |  | 
RNWALKESFIKAIGVGLGFELQRL [AASDHPPT] | 3 ± 0.54 | 2.63 ± 0.52 |  | 
DIRLTLMEEVLLLGLKDKEGYTSF [GOLPH3L] | 2.26 ± 0.44 | 2.2 ± 0.55 |  | 
VDCACLKENPECPVLKRSSESMEN [KMT2E] | 4.96 ± 0.37 | 4.98 ± 0.19 |  | 
TQEGAKDLEVDMNKTEVTPRLWTT [ACSBG2] | 3.55 ± 0.62 | 4.03 ± 0.68 |  | 
RPVILDPADPTGNLGGGDPKGWRQ [OAS1] | 4.28 ± 0.18 | 4.47 ± 0.18 |  | 
FLLLYLFTLGTNAIIISTIVLDRA [OR10K2] | 3.39 ± 0.28 | 3.23 ± 0.53 |  | 
VRGLLASLFAFKSFRENWQRAWVR [C2CD2L] | 2.3 ± 0.59 | 2.61 ± 0.28 |  | 
TMEYSMVGRTVLDMLIREVVEKRL [RSPH3] | 2.68 ± 0.54 | 2.64 ± 0.3 |  | 
LVKKVEEDEAGGRFVAFSGEGQSL [UFD1] | 4.71 ± 0.14 | 4.81 ± 0.18 |  | 
PLRAVHINLEEKEKQIRSFLIEGP [PLEKHN1] | 3.7 ± 0.31 | 3.8 ± 0.2 |  | 
RLQHICELFIITQLQSMPSRELAS [RHOBTB3] | 3.19 ± 0.5 | 3.33 ± 0.63 |  | 
ETLEASVGPRETEEKVRDLLWAKF [TOR1AIP2] | 3.98 ± 0.22 | 3.92 ± 0.3 |  | 
MRHVEKMCKADLSRNFIERNHMEN [TRIM29] | 3.05 ± 0.16 | 3.1 ± 0.12 |  | 
FQIYDKEASGYVDRDMFFKICESL [EFHC1] | 2.29 ± 0.15 | 2.5 ± 0.15 |  | 
ICGIICIGPNVLMVHKRSHTGERP [IKZF1] | 2.46 ± 0.28 | 2.02 ± 0.38 |  | 
EQLAALSQAPVNKPKKKKEKKEKE [BRD3] | 5.38 ± 0.2 | 5.67 ± 0.2 |  | 
TREWTQLKPNNLSCDLPEERYRHE [KLHDC10] | 4.61 ± 0.3 | 4.71 ± 0.13 |  | 
QRHPRLRPQSAQSSFPPSPGPSPD [AUP1] | 4.76 ± 0.21 | 4.97 ± 0.18 |  | 
FELEDSNEIFTQLYRTLFSVINNG [PDS5B] | 2.15 ± 0.47 | 2.41 ± 0.23 |  | 

Sequence | protein stability index [1] | protein stability index [2] | protein stability index (treatment: DMSO, c terminus: native) | protein stability index (treatment: MLN4924 1 uM, 8 h, c terminus: native)
AELNKEVSTNTAMIQTSKTEITEL [KRT13] | 5.26 ± 0.14 | 5.18 ± 0.079 |  | 
KDRASPADLRTNHTLNNLVEKLLR [TRIM35] | 2.44 ± 0.27 | 2.48 ± 0.13 |  | 
NGEYTLMPSPTDVVLPGAVSLRYS [ADAMTS4] | 3.23 ± 0.34 | 3.28 ± 0.41 |  | 
LWRSRVVPDREEGGSGGGGGGDED [SMAD6] | 5.36 ± 0.29 | 5.45 ± 0.14 |  | 
TERSPGPRLQELLGPSPQRDPQAV [ZNF263] | 4.79 ± 0.2 | 4.91 ± 0.35 |  | 
TFDTGCLTLSQYILLDPILMFFIM [POMT2] | 2.35 ± 0.52 | 2.33 ± 0.36 |  | 
RSHHLEMVIQLLAIMCVSCICWSP [PTGFR] | 3.18 ± 0.26 | 3.14 ± 0.69 |  | 
DQFIPIWTVANMEEIKKLTTDPDL [LARP4] | 3.97 ± 0.12 | 3.82 ± 0.42 |  | 
ETSVFDQFGIKDVFDNAIRAALIS [RHOBTB1] | 2.3 ± 0.22 | 2.18 ± 0.33 |  | 
EVIISWSEKASKKYVSKELAKEIR [EIF5] | 2.34 ± 0.15 | 2.57 ± 0.26 |  | 
AVQLRHAWNPEDRSLNVFVKDDDR [SPSB4] | 4.21 ± 0.25 | 4.24 ± 0.26 |  | 
FVEEIKKLATQHKQLISQTKKKQW [ZMYND11] | 2.73 ± 0.77 | 2.13 ± 0.33 |  | 
GSLPWQGLKADTLKERYQKIGDTK [CSNK1G1] | 4.05 ± 0.083 | 4.19 ± 0.29 |  | 
SGSLITAGRIDREELCAQSARCVV [PCDHGA10] | 3.22 ± 0.4 | 3.2 ± 0.29 |  | 
GLSIPSHSSELTEQKLRACLEGSI [RPAIN] | 3.63 ± 0.39 | 3.53 ± 0.24 |  | 
VVLLQGAELLLAARLLGALAARSG [TSPAN10] | 3.52 ± 0.57 | 2.76 ± 0.59 |  | 
NGGVVQVGELLPCKICGRTFFPVA [ZC2HC1A] | 2.42 ± 0.091 | 2.48 ± 0.47 |  | 
LIDEKVLILHGGVSDITDLELLDK [PPEF2] | 3.14 ± 1.5 | 3.71 ± 0.55 |  | 
PDFILKVVIDKHPVRFFVHKRPHV [CTDNEP1] | 2.46 ± 0.56 | 2.44 ± 0.76 |  | 
ILTLPEMMRMFSENLAHHLEIDSG [TRIM15] | 2.44 ± 0.3 | 2.44 ± 0.31 |  | 
LPGNTTEATPRSLRASGSLCGPHA | 4.46 ± 0.38 | 4.28 ± 0.3 |  | 
PGRPRTDGENVFTGQSKIYSYMSP [KMT5A] | 3.4 ± 0.39 | 3.58 ± 0.23 |  | 

Sequence | protein stability index [1] | protein stability index [2] | protein stability index (treatment: DMSO, c terminus: native) | protein stability index (treatment: MLN4924 1 uM, 8 h, c terminus: native)
GFGILGHSQNLAKQQRNEVSFVIH [SEPHS2] | 2.25 ± 0.47 | 2.32 ± 0.32 |  | 
LPNASADSLGGSQEMVQRPQPHRN [TRAF3IP2] | 5.25 ± 0.13 | 5.26 ± 0.16 |  | 
KPIHTTILNPHVHVIGEDAACIAY [CAMK2B] | 2.77 ± 0.26 | 2.98 ± 0.18 |  | 
TFFCPNDTYNDMATLFFNPQESAI [CLCN6] | 2.23 ± 0.32 | 2.26 ± 0.22 |  | 
SRLGQGIGPIHLNEIQCTGNEKSI [LOXL2] | 4.42 ± 0.32 | 4.09 ± 0.18 |  | 
ADKMTAEEVDQMFQFASIDVAGNL [MYL5] | 4.35 ± 0.41 | 4.47 ± 0.2 |  | 
GAAAQGQTQTVAAQAQALAAQAAA [PI4K2A] | 5.07 ± 0.21 | 4.95 ± 0.21 |  | 
MGSAADVRFSLGTTTHAPPGVHRR [PPFIA4] | 4.26 ± 0.3 | 4.51 ± 0.39 |  | 
RPWADTCSSSGKDGNLCLHVPNPP [HESX1] | 3.48 ± 0.14 | 3.81 ± 0.19 |  | 
RATRAGAAEEPGVRGLLASLFAFK [C2CD2L] | 3.1 ± 0.75 | 3.01 ± 0.57 |  | 
KPHRCHNCGKSFSRLTALTLHQRT [ZNF449] | 2.46 ± 0.096 | 2.78 ± 0.76 |  | 
YNMAPSALDSADLPPPSALKKGSK [NFE2L1] | 5.26 ± 0.16 | 5.13 ± 0.3 |  | 
HPDPAPFCADNPSELPPPMERTGG [DVL3] | 3.41 ± 0.55 | 4.17 ± 0.49 |  | 
TDNQVRLRKRKEIREDRDRARLDS [DLC1] | 5.18 ± 0.39 | 5.07 ± 0.3 |  | 
WDLRMKLHDRGAQVIHPQEFRRWR [DNAAF3] | 2.77 ± 0.35 | 3.02 ± 0.28 |  | 
GTIKKIIHQETVSKNGNGLKNTPR [PCMTD2] | 3.68 ± 0.55 | 4.03 ± 0.4 |  | 
LTAQGQQFHCHKAVLASCSQYFRS [KLHL14] | 2.27 ± 0.25 | 2.37 ± 0.33 |  | 
FTNCYIYNKPTDDIVLMAQALEKI [BRD3] | 2.43 ± 0.45 | 1.97 ± 0.12 |  | 
KSQSLRSVRRSESWARPRPDEERP [RASAL3] | 4.89 ± 0.36 | 4.99 ± 0.12 |  | 
TWLPSRAEWLLAVRSIQPEEKERI [AASDHPPT] | 3.3 ± 0.31 | 3.29 ± 0.2 |  | 
RRGRMALCGQAAGAASLPSELIVH [FBXO33] | 2.96 ± 0.25 | 2.78 ± 0.32 |  | 
QACARNILVQTPESESPQSHRAAG [TRIM9] | 4.46 ± 0.16 | 4.5 ± 0.27 |  | 

Sequence | protein stability index [1] | protein stability index [2] | protein stability index (treatment: DMSO, c terminus: native) | protein stability index (treatment: MLN4924 1 uM, 8 h, c terminus: native)
TQEFLSACKSLQTRQNGIQTNKPA [STX5] | 4.18 ± 0.21 | 4.14 ± 0.23 |  | 
WIKEEAAERYLYFPNWAMALLITL [SLC6A17] | 2.67 ± 0.79 | 2.81 ± 0.57 |  | 
CSCLSDILRFIYSGAFQWEELEED [RHOBTB3] | 2.35 ± 0.41 | 1.88 ± 0.34 |  | 
ANAHTYHINSISVNSDYETYMSAD [PPP2R2B] | 3.81 ± 0.24 | 3.8 ± 0.22 |  | 
LPWSSVLRVWDMFFCEGVKIIFRV [TBC1D10A] | 2.96 ± 0.72 | 3.34 ± 0.86 |  | 
SPMPYVKWMLGAEDLTPEDDMPIG [PTPRD] | 4.3 ± 0.26 | 4.17 ± 0.48 |  | 
PVKELAALPKATILDLSCNKLTTL [LRRC59] | 3.26 ± 0.1 | 3.43 ± 0.35 |  | 
EWFQNCYARYHQAFADRDQSERQR [TEKT4] | 3.41 ± 0.24 | 3.21 ± 0.21 |  | 
YYLCGFCPAELFTNTRSDLDVFGR [LUC7L3] | 2.26 ± 0.25 | 2.04 ± 0.21 |  | 
MEDSQETSPSSNNSSEELSSALHL [NECAB1] | 5.57 ± 0.18 | 5.55 ± 0.18 |  | 
NGNGKNGGLEHVPSSSSIHNGDME [BNIP3L] | 5.28 ± 0.2 | 5.28 ± 0.24 |  | 
PCSEFMEPSSDPSLLGEPCAGPGF [SPAG8] | 4.15 ± 0.25 | 4.44 ± 0.28 |  | 
NLFVPLNTNPKEVQEMRNKIREQN [ADD1] | 4.29 ± 0.18 | 4.18 ± 0.24 |  | 
STNDKTVKLWKVSERDKRPEGYNL [PPP2R2B] | 3.93 ± 0.12 | 4.19 ± 0.14 |  | 
MKNKNNVTEFILLGLTQNPEGQKV [OR4A15] | 2.44 ± 0.31 | 2.99 ± 0.11 |  | 
VLMWTMLFLGQGIQVSLYCQEWYA [SOAT2] | 2.87 ± 0.36 | 3.3 ± 0.6 |  | 
LLESPQLATLAEDVTAALAKQGL [MAP2] |  |  | 4.66 ± 0.21 | 4.53 ± 0.2
KSFILDFMLRYLYSQKESGHSNWL [ATL3] | 2.88 ± 0.33 | 3.07 ± 0.48 |  | 
FSFLGLLALGVSLLCNAITGITLL [PTGFR] | 2.77 ± 0.31 | 3.09 ± 0.98 |  | 
SGRHPSHSTTPSGPGDEVARGIAG [ARFIP2] | 4.81 ± 0.13 | 4.62 ± 0.22 |  | 
SCFLINTADRIIRVYDGREILTCG [RBBP5] | 1.91 ± 0.098 | 1.91 ± 0.27 |  | 
RDDLEALGHMFMYFLRGSLPWQGL [CSNK1G3] | 3.19 ± 0.37 | 2.93 ± 0.15 |  | 
